In FireProtDB (doi:10.1021/bi060907v):

B1: Ribonuclease HII, O74035 (parent)
chain: MKIAGIDEAGRGPVIGPMVIAAVVVDENSLPKLEELKVRDSKKLTPKRREKLFNEILGVLDDYVILELPPDVIGSREGTLNEFEVENFAKALNSLKVKPDVIYADAADVDEERFARELGERLNFEAEVVAKHKADDIFPVVSAASILAKVTRDRAVEKLKEEYGEIGSGYPSDPRTRAFLENYYREHGEFPPIVRKGWKTLKKIAEKVESEKKAEERQATLDRYFRKV

Variants of: B1
Details: Thermococcus kodakarensis (strain ATCC BAA-918 / JCM 12380 / KOD1), pH 9, reversible: Yes, structure 1IO2, whole UniProt chain shown; for ddG of mutation (higher = less stable) / denaturant m value / denaturant midpoint (higher = more stable): 50 °C, GdnHCl, CD, Tris-HCl 20 mM; for Tm / change of melting temperature, mutant - wild type (higher = more stable) / unfolding enthalpy (calorimetric) / unfolding enthalpy (van 't Hoff): Thermal, DSC, Gly-NaOH 20 mM

Row | Variant | ddG of mutation (higher = less stable) [kcal/mol] | denaturant m value [kcal/mol/M] | denaturant midpoint (higher = more stable) [M] | Tm [°C] | change of melting temperature, mutant - wild type (higher = more stable) [°C] | unfolding enthalpy (calorimetric) [kcal/mol] | unfolding enthalpy (van 't Hoff) [kcal/mol]
1 | MKIAGIDEAGRGPVIGPMVIAAVVVDENSLPKLEELKVRDSKKLTPKRREKLFNEILGVLDDYVILELPPDVIGSREGTLNEFEVENFAKALNSLKVKPDVIYADAADVDEERFARELGERLNFEAEVVAKHKAADIFPVVSAASILAKVTRDRAVEKLKEEYGEIGSGYPSDPRTRAFLENYYREHGEFPPIVRKGWKTLKKIAEKVESEKKAEERQATLDRYFRKV [D135A] | -2.56 | 4.85 | 2.37 | 90.4 | 5.2 | 147 | 153
2 | MKIAGIDEAGRGPVIGPMVIAAVVVDENSLPKLEELKVRDSKKLTPKRREKLFNEILGVLDDYVILELPPDVIGSREGTLNEFEVENFAKALNSLKVKPDVIYAAAADVDEERFARELGERLNFEAEVVAKHKADDIFPVVSAASILAKVTRDRAVEKLKEEYGEIGSGYPSDPRTRAFLENYYREHGEFPPIVRKGWKTLKKIAEKVESEKKAEERQATLDRYFRKV [D105A] | -1.58 | 5.66 | 2.17 | 89.4 | 4.2 | 170 | 162
3 | MKIAGIDQAGRGPVIGPMVIAAVVVDENSLPKLEELKVRDSKKLTPKRREKLFNEILGVLDDYVILELPPDVIGSREGTLNEFEVENFAKALNSLKVKPDVIYADAADVDEERFARELGERLNFEAEVVAKHKADDIFPVVSAASILAKVTRDRAVEKLKEEYGEIGSGYPSDPRTRAFLENYYREHGEFPPIVRKGWKTLKKIAEKVESEKKAEERQATLDRYFRKV [E8Q] | -0.6 | 3.73 | 1.97 | 85.9 | 0.6 | 158 | 163
4 | MKIAGINEAGRGPVIGPMVIAAVVVDENSLPKLEELKVRDSKKLTPKRREKLFNEILGVLDDYVILELPPDVIGSREGTLNEFEVENFAKALNSLKVKPDVIYADAADVDEERFARELGERLNFEAEVVAKHKADDIFPVVSAASILAKVTRDRAVEKLKEEYGEIGSGYPSDPRTRAFLENYYREHGEFPPIVRKGWKTLKKIAEKVESEKKAEERQATLDRYFRKV [D7N] | -1.67 | 4.45 | 2.18 | 88.3 | 3.1 | 137 | 163
5 | MKIAGIDAAGRGPVIGPMVIAAVVVDENSLPKLEELKVRDSKKLTPKRREKLFNEILGVLDDYVILELPPDVIGSREGTLNEFEVENFAKALNSLKVKPDVIYADAADVDEERFARELGERLNFEAEVVAKHKADDIFPVVSAASILAKVTRDRAVEKLKEEYGEIGSGYPSDPRTRAFLENYYREHGEFPPIVRKGWKTLKKIAEKVESEKKAEERQATLDRYFRKV [E8A] | -2.65 | 4.73 | 2.39 | 93.2 | 8 | 171 | 150
